In the assay the target is porcine dentin sialoprotein (DSP) (porcine). As to the kind of experiment: SDS-PAGE and Western blot under oxidizing.

With “porcine dentin sialoprotein (DSP) (natural protein)”, the stoichiometry N – broadly, a count of units in the complex or per binding partner – amounted to 2.

These data come from article PMC2821091.
